In a protein production outcome set (Wang et al. 2014):

Assay: label from the status in PepcDB records

## MLPWNFEGEASEPAQDPTMAPHKRQSYEEELANAITHGVGLVLSLIGWVGLLVLSGLAGGGWDLAASAVFGGTLVFLYATSTLYHSVGTARLKRTLRILDHVAIFLLIAGTYTPFAGVLMREGWGWSVLALVWGIALAGLLFKLFSTHRFHPAATTLYLLMGWLGVLFADPMSAALPLGGLLLIVAGGLAYTIGVLFYGWHSLRYSHAIWHVFVLVGSACHYAAVVLYVL
  protein production: failed

## MLEKLIERVLFATRWLLAPLCIAMSLVLVVLGYVFMKELWHMLSHLNTISETDLVLSALGLVDLLFMAGLVLMVLLASYESFVSKLDKVDASEITWLKHTDFNALKLKVSLSIVAISAIFLLKRYMSLEDVLSSIPKDTPLSHNPIFWQVVIHLVFVCSALLAAVTNNIAFSQNKAH
  protein production: failed

## NFATGTIATDPLNDSQVAVIASISKEMPGISISTSWDRKVLETSLSSIVGSVSSEKAGLPAEEAEAYLKKGYSLNDRVGTSYLEKQYEETLQGKRSVKEIHLDKYGNMESVDTIEEGSKGNNIKLTID
  protein production: failed

## MTNQHRASFPSPTRGEGRTRTALATLFLSILFLILPALAARAMDIQQVTSPKGITAWLVEDYSVPIVAVRFVFGGGSTQDPVGKEGLTNLMTGLFDEGAGPLDSEAFQVRLDDAGAEMSFEETRDGVYGSMRMLAEQRDEAFDLLRLAVNEPRFDQAPIDRIRAQILSGIIANENDPDTVAQHRWARAVYGDHPYSRSDQGTRQSIAAITKDDLKALHKAVFARGGLHVAVVGAIDAETLKKKLDMVFGDLPQNQALTPVADVEPKLAQRVEVNYDLPQTSLQLAWPGVKRKSADFFPAVLMNEILGGGTFTSRLFAEVREKRGLAYSVNSSLVNQDHADALIVTTGTRSDRAAETLGIVRDVARQLAEEGPTEAELAATKKYLIGAYAITNLDSSSSIAATLVELQLDDLGIDYMQRRAGYINAVTLDQVKAAAKKLLTAEPTIMVVGPPLAGAGKG
  protein production: failed

## MGIELVMENAHWFWLSLGGLLLAAEMLGGSGYLLWSGLSAVLVGLLTWIMPLGWPWQGTIFAILTIVTALLWWYWLRKRTLSRPPSTLNQRGQQLVGLRATVSESVTNGFGRVNIGDSSWRVKSEQDLPAGTHVEVIAVDGITLHVRSIER
  protein production: failed

## MTYQALMFDIDGTLTNSQPAYTTVMREVLATYGKPFSPAQAQKTFPMAAEQAMTELGIAASEFDHFQAQYEDVMASHYDQIELYPGITSLFEQLPSELRLGIVTSQRRNELESGMRSYPFMMRMAVTISADDTPKRKPDPLPLLTALEKVNVAPQNALFIGDSVSDEQTAQAANVDFGLAVWGMDPNADHQKVAHRFQKPLDILELFK
  protein production: not failed

## FRPVMPSRQIVERQPRMLDFRVEYRDRNVDVVLEDTCTVGEIKQILENELQIPVSKMLLKGWKTGDVEDSTVLKSLHLPKNNSLYVLTPDL
  protein production: failed

## MGDEDLIELKFRLADGTDIGPSKYSQFMTVASLKEKIIAQWPKDKENAPKMINEVKLINGGKILENNKTLSEARSLITIGELPGIVTTMHVVLRPPLFEKKKEKLQNDPPRKSHCVCCIL
  protein production: failed

## MATETQIRIGVMGCADIARKVSRAIHLAPNATISGVASRSLEKAKAFATANNYPESTKIHGSYESLLEDPEIDALYVPLPTSLHVEWAIKAAEKGKHILLEKPVAMNVTEFDKIVDACEANGVQIMDGTMWVHNPRTALLKEFLSDSERFGQLKTVQSCFSFAGDEDFLKNDIRVKPGLDGLGALGDAGWYAIRATLLANNFELPKTVTAFPGAVLNEAGVILSCGASLSWEDGRTATIYCSFLANLTMEITAIGTKGTLRVHDFIIPYKETEASFTTSTKAWFNDLVTAWVSPPSEHTVKTELPQEACMVREFARLVGEIKNNGAKPDGYWPSISRKTQLVVDAVKESVDKNYQQISLSGR
  protein production: not failed

## MINSFKSVFLTIRYFIQNDLATQASALTYRTILSIVPMLAVLIGIAKGFGIQQVVHDWLKEYLPGHQQELEQALGYVENYLAQVQGGIFVGVGLIVLLYTVFSLIATVEDTFTDIWQTNKRRTWKRRVIDYMGAFFLLPILITASSGLTLMMTTIKGTYFSEYILFGPMLELILNLIPYVIIVLLFTGMYIVLPTVNVRFWPAFISGVLAGIVFQIFQALYISGILWISKYNAIYGSFAAVPLLLLWIQLSWTIVLFGAQLSFSIQNVRKFAFERDTTNVSRRYIDFITIVVASLIVKRFISDERRPHTADSLAEESKAPIRLVSEAIHRLLSIEAITEVNYAHDPKAEFFSPAIDPEKITVGFILDRIDRYGSEHFKVDNKVRFAPEWQAIEDSRQSLHIPPADTLLKNL
  protein production: failed
